Data published in paper PMC2786168.

Key:
RNase R R572K = target: T1, RNase R R572K (Escherichia coli, UniProt P21499 1-813, R572K); experiment: filter binding
T1 sequence: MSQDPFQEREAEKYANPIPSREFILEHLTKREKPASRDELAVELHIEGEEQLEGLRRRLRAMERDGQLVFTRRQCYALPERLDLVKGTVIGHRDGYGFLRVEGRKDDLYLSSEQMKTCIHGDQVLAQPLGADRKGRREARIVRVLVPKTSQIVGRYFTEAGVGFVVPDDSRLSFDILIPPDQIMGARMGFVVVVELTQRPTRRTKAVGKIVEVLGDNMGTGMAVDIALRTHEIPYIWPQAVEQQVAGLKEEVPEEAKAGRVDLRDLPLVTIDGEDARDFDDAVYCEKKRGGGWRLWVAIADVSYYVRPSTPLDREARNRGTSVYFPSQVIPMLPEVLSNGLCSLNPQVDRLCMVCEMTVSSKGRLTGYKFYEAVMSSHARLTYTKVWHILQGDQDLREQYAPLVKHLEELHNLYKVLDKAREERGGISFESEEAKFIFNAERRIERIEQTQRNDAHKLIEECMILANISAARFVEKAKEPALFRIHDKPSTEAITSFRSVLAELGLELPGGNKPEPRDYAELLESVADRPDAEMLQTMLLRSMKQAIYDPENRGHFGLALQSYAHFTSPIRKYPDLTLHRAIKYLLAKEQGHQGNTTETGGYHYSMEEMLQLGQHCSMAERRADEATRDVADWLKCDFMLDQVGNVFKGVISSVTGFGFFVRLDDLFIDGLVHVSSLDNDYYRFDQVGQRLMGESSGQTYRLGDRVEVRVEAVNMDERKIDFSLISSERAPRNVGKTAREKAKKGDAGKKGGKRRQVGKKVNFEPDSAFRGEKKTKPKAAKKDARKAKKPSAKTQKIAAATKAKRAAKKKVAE

RNase R wild-type = target: T2, RNase R wild-type (Escherichia coli, UniProt P21499 1-813); experiment: filter binding
T2 sequence: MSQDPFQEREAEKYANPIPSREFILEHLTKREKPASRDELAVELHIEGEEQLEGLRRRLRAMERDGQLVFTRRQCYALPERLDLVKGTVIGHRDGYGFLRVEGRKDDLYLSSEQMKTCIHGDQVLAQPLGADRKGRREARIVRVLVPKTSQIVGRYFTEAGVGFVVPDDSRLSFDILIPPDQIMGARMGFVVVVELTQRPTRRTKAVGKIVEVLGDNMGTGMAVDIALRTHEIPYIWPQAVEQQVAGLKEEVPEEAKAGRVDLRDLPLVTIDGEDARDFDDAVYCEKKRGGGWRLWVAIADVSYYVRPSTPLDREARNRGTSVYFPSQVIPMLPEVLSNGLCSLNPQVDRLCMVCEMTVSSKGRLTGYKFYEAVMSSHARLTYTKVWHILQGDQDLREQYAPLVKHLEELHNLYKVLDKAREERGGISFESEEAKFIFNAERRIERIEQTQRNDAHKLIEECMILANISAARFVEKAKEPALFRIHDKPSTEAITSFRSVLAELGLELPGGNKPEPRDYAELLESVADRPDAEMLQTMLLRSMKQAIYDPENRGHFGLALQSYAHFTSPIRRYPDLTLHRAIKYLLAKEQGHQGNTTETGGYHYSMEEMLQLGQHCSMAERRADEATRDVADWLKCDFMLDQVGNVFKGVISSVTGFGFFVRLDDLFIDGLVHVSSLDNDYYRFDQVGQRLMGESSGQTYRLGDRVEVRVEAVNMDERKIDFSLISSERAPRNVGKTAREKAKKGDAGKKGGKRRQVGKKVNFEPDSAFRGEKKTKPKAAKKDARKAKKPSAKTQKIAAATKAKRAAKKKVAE

AAAAAAAAAAAAAAAAA (ssRNA) [A17] was tested, and the Kd (RNase R R572K) was 0.5 ± 0.1 nM and the Kd (RNase R wild-type) was 0.8 ± 0.1 nM.
